Reference: US20070134256A1

Key:
[1] = biological target: DENV-2 antigenic variant NGC-V2 (dengue type 2 virus), P14340; assay: cell-based or functional assay
[2] = biological target: chimpanzee Fab 1A5; assay: competition ELISA: Fab 1A5 (1.04 nM) pre-incubated with peptide in serial dilution, then binding to DENV-2 coated wells

Row | Binder | PRNT50 titer [1] | IC50 [2]
1 | chimpanzee Fab 1A5 (Fab, V domains shown) VH: EVQLLESGGGLVQPGGSRRLSCAASGFTISDNVMHWVRQAPGKGLEWVALIYSADTTHYADSVKGRFTISRDNSKNTLYLQMDSLRPEDTAVYYCAREYCTGDTCFAHFDYWGQGTLVSVSS VL: ELQMTQSPSSVSASVGDTVTIACRASQSITNYLSWYQQKPGKAPKLLIYHASTLQSGIPSRFSGSGSGTDFTLTISSLQPDDFATYYCHYGYGTHTFGQGTKLEIKRT | > 70 µg/mL | –
2 | DRGWGNGSGLFGKGG (modifications not checked) [fusion peptide …] | – | 170 µM
